Consider one substance from patent US20230093211A1.

Holding throughout (experiment): SPR (Biacore T200), p75NTR-Fc captured on Protein A, neurotrophin injected
One assay concerns the target NT-3.
For a further assay, the target named is T1, BDNF.
T1 sequence (P23560 19-247, species assumed, looked up): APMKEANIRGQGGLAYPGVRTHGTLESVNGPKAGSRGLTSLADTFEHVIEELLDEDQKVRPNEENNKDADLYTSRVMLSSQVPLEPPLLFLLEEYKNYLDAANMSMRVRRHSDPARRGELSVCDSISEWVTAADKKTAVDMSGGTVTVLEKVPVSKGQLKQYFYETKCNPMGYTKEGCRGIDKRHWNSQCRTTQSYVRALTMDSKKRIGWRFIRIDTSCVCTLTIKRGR

Another assay concerns the target T2, NT-4.
T2 sequence (P34130 81-210, species assumed, looked up): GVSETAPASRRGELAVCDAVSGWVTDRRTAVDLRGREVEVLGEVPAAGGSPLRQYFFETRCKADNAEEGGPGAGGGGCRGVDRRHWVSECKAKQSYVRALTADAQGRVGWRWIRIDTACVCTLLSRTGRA

Another assay deals with NGF.

pKd: −log10 of the molar value.

Chain of p75NTR-Fc (Fc fusion) (chain): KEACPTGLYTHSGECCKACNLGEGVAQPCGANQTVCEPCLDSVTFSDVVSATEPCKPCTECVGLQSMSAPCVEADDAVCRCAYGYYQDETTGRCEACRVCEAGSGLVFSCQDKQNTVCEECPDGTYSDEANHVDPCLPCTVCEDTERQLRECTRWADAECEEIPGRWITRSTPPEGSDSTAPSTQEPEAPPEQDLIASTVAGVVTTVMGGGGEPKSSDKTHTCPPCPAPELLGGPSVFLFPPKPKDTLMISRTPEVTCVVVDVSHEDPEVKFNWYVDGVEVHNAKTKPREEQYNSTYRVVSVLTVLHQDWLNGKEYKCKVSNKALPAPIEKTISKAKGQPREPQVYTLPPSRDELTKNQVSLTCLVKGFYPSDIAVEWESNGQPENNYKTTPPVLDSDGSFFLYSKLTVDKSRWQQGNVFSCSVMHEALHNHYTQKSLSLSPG
Chain of NGF (P01138 122-241): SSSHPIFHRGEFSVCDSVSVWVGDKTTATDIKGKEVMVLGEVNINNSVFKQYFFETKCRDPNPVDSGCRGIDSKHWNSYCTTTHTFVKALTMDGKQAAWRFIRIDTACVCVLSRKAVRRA

For p75NTR-Fc (Fc fusion), the pKd with NT-3 was 10.85; with BDNF it was 10.38; with NT-4, 9.74; with NGF it was 9.26.
